{"source": "the nanobody polyreactivity screen of Harvey et al. (2022)", "data": [{"assay": "yeast display, Sf9 membrane polyspecificity reagent, FACS + sequencing; frameworks hold sequencing errors", "outline": "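Using colony PCR, genes from sorted yeast display clones were amplified, then sequenced on MiSeq at 2 × 250 and filtered by CDR length. The clones had been stained with 10% biotinylated, detergent-solubilized Sf9 membrane reagent for 1 hour at 4 °C and sorted by FACS into low and high (top ~1%) gates on anti-HA and streptavidin fluorescence. Polyreactivity labels come from the gate of origin.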", "values": [{"sequence": "QVQLVESGGGLVQAGGSLRLRCAASGSIFGGNAMGWYRQAPGKEREMVATITDRGSSTYYADSVKGRFTISRDNAKNTGYLQMNSLKPEDTAVYYCATAFPDVPEHDYWGQGTQVTVSS", "polyreactivity (PSR sort gate)": "low polyreactivity"}, {"sequence": "QVQLVESGGGLVQAGGSLRLRCAASGSIFKYYAMGWYRQAPGTERELVAAITWSGTRTYYADSVKGRFTISRDNAKNTVYVQMNSLKPEDTAVYYCNAPRYLYSAGRFNYWGQGTQVTVSS", "polyreactivity (PSR sort gate)": "high polyreactivity"}, {"sequence": "QVQLVESGGGLVQAGGSLRLRCAASGSIFSNNAMGWYRPAPGKERELVAAITRSGGNTYYADSVKGRFTISRDNAKNTVYLQMNSLKPEDTAVYYCNAVHLRKMYYWGQGTQVTVSS", "polyreactivity (PSR sort gate)": "high polyreactivity"}, {"sequence": "QVQLVESGGGLVQAGGSLRLRCAASGSIFVVNAMGWYRPAPGKERELVAAISWSDTTTYYADSVKARFTISRDNAKNTVYLQMNSLKPEDTAVYYCAAGFVIKYDYWGQGTQVTVSS", "polyreactivity (PSR sort gate)": "low polyreactivity"}, {"sequence": "QVQLVESGGGLVQAGGSLRLRCAASGSIFYRNAMGWYRQAPGKERELVASITSGGRTNYADSLKGRFTISRDNAKNTVYLQMNSLKPEDTAVYYCAVQYHAASDHSYWGQGTQVTVSS", "polyreactivity (PSR sort gate)": "low polyreactivity"}, {"sequence": "QVQLVESGGGLVQAGGSLRLRCAASGSIIGIYAMGWYRQAPGKERELVAAISWSGGSTYYADSVKGRFTISRDNAKNTVYLQMISLKPVDTAVYYCAARGHYQYYWGQGTQVTVSS", "polyreactivity (PSR sort gate)": "low polyreactivity"}, {"sequence": "QVQLVESGGGLVQAGGSLRLRCAASGSIIVPNAMGWYRQAPGKERELVAAISGRGGSTYYADSEKGRFTISRDNAKNTVSLQMKSLKPEDTAVYYCAAQDTYHSYGLYSWGQGTQVTVSS", "polyreactivity (PSR sort gate)": "low polyreactivity"}, {"sequence": "QVQLVESGGGLVQAGGSLRLRCAASGSSFTGYAMGLYRQAPGKEREFVAAICWTGVSTYYADSVKGSFTISRDNAKNTVYLQMNSLKPEDTAVYYCAVDYVLRDRDLFYIIMEYWGQGTQVTVSS", "polyreactivity (PSR sort gate)": "low polyreactivity"}, {"sequence": "QVQLVESGGGLVQAGGSLRLRCAASGSTFLYYSMGWYREAPGKECELVAAISSTDDSTYADSVKGRFTISRDNAKNTVYLQLNSLKPEDTAVYYCAADVQTLITLGQFDYWGQGTQVTVSS", "polyreactivity (PSR sort gate)": "low polyreactivity"}, {"sequence": "QVQLVESGGGLVQAGGSLRLRCAASGSTFTYYAMGWYRQAPGKERELVAVSNKSGGRTNYADSVKGRFTISRDNAKNTVYLQMNSLKPEDTAVYYCNKVTRREGSYGYPSRYDYWGQGTQVTVSS", "polyreactivity (PSR sort gate)": "high polyreactivity"}, {"sequence": "QVQLVESGGGLVQAGGSLRLRCAASGSTFYGYAMGRYRQAPGTERELVALISSSSGRTYYADSVKGRFTISRDNAKNTLYLQMNSLKPEDTAVYDCAKYVFGKFEGVRYSFDYWGQGTQVTVSS", "polyreactivity (PSR sort gate)": "low polyreactivity"}, {"sequence": "QVQLVESGGGLVQAGGSLRLRCAASGSTFYHNAMGWYRQAPGKERELVAAISTRGTSTYYADSVKGRFTISRDKAKNTVYLQMNSLKPEDTAVYYCNAVYKLRARYDYWGQGTQVTVSS", "polyreactivity (PSR sort gate)": "high polyreactivity"}, {"sequence": "QVQLVESGGGLVQAGGSLRLRCAASGSTFYLNAQGWYRQATGKEREFVAAITVSGGSTYYADSVKARFTISRDNAKNTVYLKMNSLKPEDTAVYYCARELLSPTYQRWYYYWGQGTQVTVSS", "polyreactivity (PSR sort gate)": "low polyreactivity"}, {"sequence": "QVQLVESGGGLVQAGGSLRLRCAASGSTIVQYDMGWYRQAPGKERELVAAISRTGSTYYADSVKGRFTISRDNAKNTVYLQINSLKPEDTAVYYCNAEFWRGTYRFGYWGQGTQVTVSS", "polyreactivity (PSR sort gate)": "low polyreactivity"}, {"sequence": "QVQLVESGGGLVQAGGSLRLRCAASGYTFRGNAMAWYSQAPGKERDLVAGISQTGGNTYYADSVKGRFTISRDNAKNTVYLQMNSLKPEDTAVYYCATTRRPYVRGYPHYYWGQGTEVTVSS", "polyreactivity (PSR sort gate)": "high polyreactivity"}, {"sequence": "QVQLVESGGGLVQAGGSLRLRCASSGGIFVPYAMGWYRQAPGKERELVAGITSGGSTNYADSVKGRFSISRDNAKNTVYLQMNRLKPEDTAVYYCAARRRPGGRYKSRVWYDYWGLGTQVTVSS", "polyreactivity (PSR sort gate)": "high polyreactivity"}, {"sequence": "QVQLVESGGGLVQAGGSLRLRGAASGSIFVYYAMGWYRPAPGKERELVASISESDGSTSYADSVKGRFTISRDNAKNTVYLQMNSLKPEDTAVYYCAADPYFYWYSPSFDYWGQGTQVTVSS", "polyreactivity (PSR sort gate)": "low polyreactivity"}, {"sequence": "QVQLVESGGGLVQAGGSLRLRSAASGGTIARYAMGWYRQATGKERELVAAITKSRDLTYYADSVKGRFTISRDSAKNTVYLQMNSLKPEDTAVYYCARPPSTGYQGGYDYWGQGTQVTVSS", "polyreactivity (PSR sort gate)": "high polyreactivity"}, {"sequence": "QVQLVESGGGLVQAGGSLRLSCAAAGIIFISYDMGWYRPAPGKDRELVARINWDGGSTYYADSVKGRFTISRDKAKHTFYLQTNTLKPEDTAVSYCAAGFVGTNYPLQGFSYEYWGPGTQVTVSS", "polyreactivity (PSR sort gate)": "low polyreactivity"}, {"sequence": "QVQLVESGGGLVQAGGSLRLSCAAAGITFKWNAMGWYRQAPGKERELVAVISSDGRTYYADSVKGRFTSSRDNAKNTVYLQMNSLKPEDTAVYYCARSHSYYPAGPYYYWGQGTQVTVSS", "polyreactivity (PSR sort gate)": "low polyreactivity"}, {"sequence": "QVQLVESGGGLVQAGGSLRLSCAAAGITLYRYVMGWYRQAPGKERELVADISGRGTSTYYADSEKGRFTISRDNAKNTVYLQMNSLKPEDTAVYYCNAEYTKTGALVIPYTYYYAEDYWGQGTQVTVSS", "polyreactivity (PSR sort gate)": "low polyreactivity"}, {"sequence": "QVQLVESGGGLVQAGGSLRLSCAAAGLIFSAYAMGWYRQAPGKEREVVAAISRSGGITYYADSVKGRFTISRDNAKNTVYLQMISLKPEDTAVYYCNARWYDPTLKFGYWGQGTQVTVSS", "polyreactivity (PSR sort gate)": "high polyreactivity"}, {"sequence": "QVQLVESGGGLVQAGGSLRLSCAAAGSIFGDYVMGWYRQAPGKERELVPANTSATSTYYADSVKGRFTISRDNAKNTVYLQMNSLKPEDTAVYYCNADATYPLWPNIWYDYDYWGQGTQVTVSS", "polyreactivity (PSR sort gate)": "low polyreactivity"}, {"sequence": "QVQLVESGGGLVQAGGSLRLSCAAAGSIFGSYAMGWSRQAPGKERELVPAINSGGATIYSDSVKGRFTISRDNAKNTVYLQMNSLKPEDTAVYYCNAPGRRFNRYGGDYWGQGTQVTVSS", "polyreactivity (PSR sort gate)": "high polyreactivity"}, {"sequence": "QVQLVESGGGLVQAGGSLRLSCAAAGSIFVWYVMGWYRQAHGKEMELVAAITWSAARTYYADSVKGRFTISRDNAKNTVYLLMNSLKPEDTAVYYCAADHVSYQPSSRIFDYWGQGTQVTVSS", "polyreactivity (PSR sort gate)": "low polyreactivity"}, {"sequence": "QVQLVESGGGLVQAGGSLRLSCAAAGSTFLRNALGWSRPAPGKKVSWVATISYDGDSTYYADSVKGRFTISRDNAKNTVYLQMNSLKPEDTAVYYCAASYSLTFWDKDDYWGQGTQVTVSS", "polyreactivity (PSR sort gate)": "low polyreactivity"}, {"sequence": "QVQLVESGGGLVQAGGSLRLSCAAAGSTFRYYAMGWYRHAPGKDRELVAAITSGGNTYNADSVKGRFTISRDNAKNTVYLLMNSLKPEDTAVYYCAAVGYLKYDNWGQGTQVTVSS", "polyreactivity (PSR sort gate)": "low polyreactivity"}, {"sequence": "QVQLVESGGGLVQAGGSLRLSCAAAGTTFSHNTMGWYRQAPGKERELVAAITSGGTTYYADSVKGRFTISRDNAKNTVYLQMMSLKPEDTAVYYCAALRPRGGYYYWGQGTQVTVSS", "polyreactivity (PSR sort gate)": "high polyreactivity"}, {"sequence": "QVQLVESGGGLVQAGGSLRLSCAACGLTFGGYVMGWYRQAPGKVRELVAAISGSGGRTYYADSVKGRFTISRDNAKNTVYLQMNSLKPEDTAVYYCARPSRGPPRGYYWGKGTQVTVSS", "polyreactivity (PSR sort gate)": "high polyreactivity"}, {"sequence": "QVQLVESGGGLVQAGGSLRLSCAACGNIFGPYAMGWYRQAPGKERELVAAISFTGVSTYYADSVKGRFTISRDNAKNTVYLQMNSLKPEDTAVYYCSYYRSSTYYYWGQGTQVTVSS", "polyreactivity (PSR sort gate)": "high polyreactivity"}, {"sequence": "QVQLVESGGGLVQAGGSLRLSCAACGNTFYWNAMGLYRQAPGKERELVAAISTTGVSTYYADSVKGRFTISRDNAKNTVYLQMNSLKPEDTAVYYCAAEIIGYHTIYDYWGQGTQVTVSS", "polyreactivity (PSR sort gate)": "low polyreactivity"}, {"sequence": "QVQLVESGGGLVQAGGSLRLSCAACGRTFRGYAMGWYRQAPGKERELVAAITSGGSTYYADSVKGRFTISRDNAKNTDFLEMNSLKPEDTAVYYCNKLYYSGKPRFRYDYWGQGTQVTVSS", "polyreactivity (PSR sort gate)": "high polyreactivity"}]}]}
